Three molecules from PMC3343046, “Overexpression of the Catalytically Impaired Taspase1^T234V or Taspase1^D233A Variants Does Not Have a Dominant Negative Effect in T(4;11) Leukemia Cells” (PLoS ONE, 2012) can be followed below.

B1: Taspase1-mCherry (wild type) (enzyme, human, UniProt Q9H6P5 1-420, looked up)
chain: MTMEKGMSSGEGLPSRSSQVSAGKITAKELETKQSYKEKRGGFVLVHAGAGYHSESKAKEYKHVCKRACQKAIEKLQAGALATDAVTAALVELEDSPFTNAGMGSNLNLLGEIECDASIMDGKSLNFGAVGALSGIKNPVSVANRLLCEGQKGKLSAGRIPPCFLVGEGAYRWAVDHGIPSCPPNIMTTRFSLAAFKRNKRKLELAERVDTDFMQLKKRRQSSEKENDSGTLDTVGAVVVDHEGNVAAAVSSGGLALKHPGRVGQAALYGCGCWAENTGAHNPYSTAVSTSGCGEHLVRTILARECSHALQAEDAHQALLETMQNKFISSPFLASEDGVLGGVIVLRSCRCSAEPDSSQNKQTLLVEFLWSHTTESMCVGYMSAQDGKAKTHISRLPPGAVAGQSVAIEGGVCRLESPVN
notes: Threonine Aspartase 1 (Taspase1), human, 420 aa; open reading frame cloned from MV4;11 and THP-1 cells; The wild-type proenzyme is autoproteolytically processed in cells into α- and β-subunits; also called Tasp-mCherry; Tasp-mCh; source: HeLa, transfected, in living cells
B2: Tasp^T234V-mCherry (enzyme, human, UniProt Q9H6P5 1-420, looked up)
chain: MTMEKGMSSGEGLPSRSSQVSAGKITAKELETKQSYKEKRGGFVLVHAGAGYHSESKAKEYKHVCKRACQKAIEKLQAGALATDAVTAALVELEDSPFTNAGMGSNLNLLGEIECDASIMDGKSLNFGAVGALSGIKNPVSVANRLLCEGQKGKLSAGRIPPCFLVGEGAYRWAVDHGIPSCPPNIMTTRFSLAAFKRNKRKLELAERVDTDFMQLKKRRQSSEKENDSGTLDVVGAVVVDHEGNVAAAVSSGGLALKHPGRVGQAALYGCGCWAENTGAHNPYSTAVSTSGCGEHLVRTILARECSHALQAEDAHQALLETMQNKFISSPFLASEDGVLGGVIVLRSCRCSAEPDSSQNKQTLLVEFLWSHTTESMCVGYMSAQDGKAKTHISRLPPGAVAGQSVAIEGGVCRLESPVN
notes: Threonine Aspartase 1 (Taspase1), human, 420 aa, with Thr234 changed to Val; Not autoprocessed; stays a proenzyme; also called Taspase1^T234V-mCherry; catalytically dead Taspase1 mutant; source: HeLa, transfected, in living cells
B3: Tasp^D233A-mCherry (enzyme, human, UniProt Q9H6P5 1-420, looked up)
chain: MTMEKGMSSGEGLPSRSSQVSAGKITAKELETKQSYKEKRGGFVLVHAGAGYHSESKAKEYKHVCKRACQKAIEKLQAGALATDAVTAALVELEDSPFTNAGMGSNLNLLGEIECDASIMDGKSLNFGAVGALSGIKNPVSVANRLLCEGQKGKLSAGRIPPCFLVGEGAYRWAVDHGIPSCPPNIMTTRFSLAAFKRNKRKLELAERVDTDFMQLKKRRQSSEKENDSGTLATVGAVVVDHEGNVAAAVSSGGLALKHPGRVGQAALYGCGCWAENTGAHNPYSTAVSTSGCGEHLVRTILARECSHALQAEDAHQALLETMQNKFISSPFLASEDGVLGGVIVLRSCRCSAEPDSSQNKQTLLVEFLWSHTTESMCVGYMSAQDGKAKTHISRLPPGAVAGQSVAIEGGVCRLESPVN
notes: Threonine Aspartase 1 (Taspase1), human, 420 aa, with Asp233 changed to Ala; Impaired in autoproteolytic cis-cleavage; also called Taspase1^D233A-mCherry; highly attenuated Taspase1 variant; source: HeLa, transfected, in living cells

This test deals with T1, TaspCyt (GFP-tagged Taspase1 with a C-terminal nuclear export signal) (human, UniProt Q9H6P5 1-420).
T1 construct: Threonine Aspartase 1 (Taspase1), human, 420 aa; open reading frame cloned from MV4;11 and THP-1 cells; Still catalytically active, so probably processed in cells into α- and β-subunits; also called GFP-TaspCyt; pTaspcyt; source: HeLa, transfected, in living cells; not shown: NES (strong nuclear export signal), C-terminal, kept
T1 sequence (looked up): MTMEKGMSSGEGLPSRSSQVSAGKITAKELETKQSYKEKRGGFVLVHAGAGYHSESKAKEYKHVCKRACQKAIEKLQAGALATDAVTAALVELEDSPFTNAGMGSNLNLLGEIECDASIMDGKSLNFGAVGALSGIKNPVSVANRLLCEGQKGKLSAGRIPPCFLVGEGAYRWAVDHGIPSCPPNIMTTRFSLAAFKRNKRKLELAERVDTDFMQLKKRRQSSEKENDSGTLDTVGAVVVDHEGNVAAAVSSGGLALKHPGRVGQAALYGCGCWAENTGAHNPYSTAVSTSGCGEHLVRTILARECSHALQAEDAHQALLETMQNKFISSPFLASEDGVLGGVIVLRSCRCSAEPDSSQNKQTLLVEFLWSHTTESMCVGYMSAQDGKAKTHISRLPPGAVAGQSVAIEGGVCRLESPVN
In words: translocation-based protein interaction assay; living HeLa transfectants, 24 h after transfection; nuclear/nucleolar recruitment of a cytoplasmic fluorescent fusion by a nuclear/nucleolar fusion; fluorescence microscopy, and confocal microscopy with the Manders overlap coefficient R. The conditions noted are these: partners not purified.
As for B1, the “Manders overlap coefficient R” value is 0.387.

As to B2, the “Manders overlap coefficient R” value was 0.388.

For B3, the “Manders overlap coefficient R” value was 0.394.
